Source: patent US20130053541A1, “METHODS FOR DISCOVERING MOLECULES THAT BIND TO PROTEINS” (LYNNTECH, INC., priority 2011, published 2013)
Where no end group is shown, it is not given here.

T1: native human ESRRG protein (Homo sapiens, UniProt P62508)
T1 sequence (P62508 1-458): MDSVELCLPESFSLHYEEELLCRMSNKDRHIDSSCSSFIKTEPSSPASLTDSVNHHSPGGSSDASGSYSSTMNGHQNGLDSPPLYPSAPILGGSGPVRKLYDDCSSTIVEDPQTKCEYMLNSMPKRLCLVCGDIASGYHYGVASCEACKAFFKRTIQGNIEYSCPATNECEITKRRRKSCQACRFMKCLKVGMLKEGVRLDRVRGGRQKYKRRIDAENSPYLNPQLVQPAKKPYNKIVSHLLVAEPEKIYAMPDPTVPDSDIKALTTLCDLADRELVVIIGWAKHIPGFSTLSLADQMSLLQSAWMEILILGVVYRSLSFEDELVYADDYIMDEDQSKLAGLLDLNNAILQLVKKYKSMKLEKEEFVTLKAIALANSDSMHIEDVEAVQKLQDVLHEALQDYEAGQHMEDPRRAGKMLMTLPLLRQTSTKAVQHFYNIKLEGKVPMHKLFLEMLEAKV

T2: native human ESRRG protein (Estrogen-receptor related receptor gamma) (human, UniProt P62508 229-458, limits assumed)
T2 construct: the screened protein is called 'native human ESRRG protein'; also called ESSRG; ERRγ
T2 sequence (looked up): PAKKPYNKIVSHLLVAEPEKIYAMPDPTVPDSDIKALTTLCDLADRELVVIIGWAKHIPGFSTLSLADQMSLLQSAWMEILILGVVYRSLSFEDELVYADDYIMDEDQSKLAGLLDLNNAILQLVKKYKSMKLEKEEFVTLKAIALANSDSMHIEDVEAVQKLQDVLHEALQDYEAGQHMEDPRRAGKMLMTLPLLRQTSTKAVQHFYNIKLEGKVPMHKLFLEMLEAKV


molecular target: T1, native human ESRRG protein; experiment: peptide microarray screening for ESRRG binding (Iteration 1 and 2); settings: Iteration 1 primary screen
Source text: The BLOSUM62 matrix was divided into Tiers based, with Tier 1 comprising “most conserved” (lowest penalty) and Tier 3 comprising “least conserved” (highest penalty) mutations observed in nature. Sequences for microarray production for the primary stage (Iteration 1) of screening for protein binding were created by permuting AA positions 4 and/or 5 only (i.e., core of sequence) of parent 8-mer peptides using Tier 1 and Tier 3 substitutions. This allows the systematic variation of the sequence in order to identify the most important motif within the larger candidate ligand sequence that is needed for binding the target protein. All peptides on the array were grown from the C→N terminal, with the exposed N-terminal amino acid masked by an acetyl group to prevent folding of the sequence and enable full presentation of the peptide to its target protein.
(§1) Screening was carried out typically by hybridization of the protein (1 μg/mL) against the array for 1 h at 4° C.; detection of bound protein was carried out using a fluorescently labeled anti-ESRRG mAb. (Direct labeling of ESRRG and alternative detection strategies are equally valid).
Highest binders (based on relative fluorescence signal) were selected and iteratively sequence expanded and arrayed (Iteration 2); and ESRRG binding sequences were selected as above. For iterative arrays, the core positions (AA 4 and 5) were kept unchanged while the outer amino acids (2, 3, 6, and/or 7) were permuted using Tier 3 substitutions.
Daughter candidate ligands and their new Tier 3 and/or Tier 1 based combinations were synthesized in situ on an addressable peptide microarray and screened against native human ESRRG protein in order to determine sequences that bind to this protein. Bound protein was detected by a fluorescently labeled anti-ESRRG mAb. Results are obtained in fluorescence intensity units which were used to rank the peptide ligands. Excess (100×) competing biological matrices (human serum, HSA/BSA or bacterial protein extract) were used as backgrounds to select for specific ligands to the protein. Other competing proteins can be added to background for specificity selection and directed evolution of ligands.
Iterative sequence expansion and arraying of 10 highest binding ligands to ESRRG from Iteration 1 was carried out and the new peptide sequences were synthesized on an array and screened against the protein, as described above. In this step, the central 2 amino acids (core) in peptide sequences were maintained unchanged while outlying amino acids (2, 3, 6, and 7) were permuted (using Tier 1 and Tier 3 substitutions) in a ‘cipher’ or ‘combination’ lock approach. Further affinity maturation of sequence was observed, with multifold enhancement in binding signal of Iteration 2 sequences (i.e., Granddaughters) compared to their respective parents from Iteration 1 (i.e., Daughters) on the same array.

| Molecule | log2 (Sample B/Sample A) |
| --- | --- |
| Ac-IKQDHNNS-NH2 (C-terminus assumed) | 9.45 |
| Ac-LLHKSKSQ-NH2 (C-terminus assumed) | 4.99 |

same assay, conditions: Iteration 1 primary screen; fluorescence intensity units

| Molecule | Sample A (Bkgd) Signal | Sample B (Probe) Signal |
| --- | --- | --- |
| Ac-IKQDHNNS-NH2 (C-terminus assumed) | 1.00 | 701.08 |
| ANNSKLLH | 23.60 | 1,009.30 |
| ANNSQLLH | 1.00 | – |
| ANNVKLLH | 52.38 | 1,718.47 |
| RKALVGKY | 28.08 | – |
| ANNIQLLH | 2.12 | – |
| Ac-LLHKSKSQ-NH2 (C-terminus assumed) | 30.24 | 962.22 |

same assay, conditions: Iteration 2 iterative screen; fluorescence intensity units

| Molecule | Sample A (Bkgd) Signal | Sample B (Probe) Signal |
| --- | --- | --- |
| AFNMYLDE | 115.25 | – |
| FYNMYLLN | 251.75 | 1,558.62 |
| EESYPRDK | 121.27 | – |
| FFKGHFKF | 543.19 | 5,435.29 |
| YFLLQQGP | 202.29 | – |

molecular target: T2, native human ESRRG protein …; experiment: peptide microarray, Iteration 2; bound ESRRG detected with fluorescent anti-ESRRG mAb; settings: not given
Experimental: as §1
Iterative sequence expansion and arraying of 10 highest binding ligands to ESRRG from Iteration 1 was carried out and the new peptide sequences were synthesized on an array and screened against the protein, as described above. In this step, the central 2 amino acids (core) in peptide sequences were maintained unchanged while outlying amino acids (2, 3, 6, and 7) were permuted (using Tier 1 and Tier 3 substitutions) in a ‘cipher’ or ‘combination’ lock approach.

| Molecule | Sample B (Probe) Signal | log2 (Sample B/Sample A) |
| --- | --- | --- |
| Ac-DINFSLGI | 4800 fluorescence intensity units | 4.9 |
| Ac-EDSYPRDG | 5020 fluorescence intensity units | 4.08 |
| Ac-DNNYLLLL | 2240 fluorescence intensity units | 3.84 |
| Ac-FFKGHFKF | 5440 fluorescence intensity units | 3.32 |
| Ac-FFNFSLPA | 1040 fluorescence intensity units | 2.66 |
| Ac-AHNYLLEH | 619 fluorescence intensity units | 2.42 |
| Ac-FWNMYLNP | 775 fluorescence intensity units | 2.29 |
| Ac-EESYPRDK | 554 fluorescence intensity units | 2.19 |
| Ac-ALNFSLNW | 662 fluorescence intensity units | 2.12 |

Further lines, results first:

| Sample B (Probe) Signal | log2 (Sample B/Sample A) | Molecule |
| --- | --- | --- |
| 7240 fluorescence intensity units | 6.47 | Ac-HDNMYLNE |
| 13800 fluorescence intensity units | 4.88 | Ac-NFNYLLPH |
| 19000 fluorescence intensity units | 4.56 | Ac-HRSYPRRG |
| 4370 fluorescence intensity units | 4.45 | Ac-NNNFSLHM |
| 5590 fluorescence intensity units | 4.27 | Ac-PDSYPRWG |
| 2860 fluorescence intensity units | 3.97 | Ac-WANYLLPP |
| 2340 fluorescence intensity units | 3.69 | Ac-WIKLKQND |
| 2460 fluorescence intensity units | 3.55 | Ac-TGKLKQDG |
| 2420 fluorescence intensity units | 3.47 | Ac-LFLLQQDD |
| 2300 fluorescence intensity units | 3.41 | Ac-NLLLKHPD |
| 2780 fluorescence intensity units | 3.32 | Ac-LFKLKQDG |
| 1750 fluorescence intensity units | 3.25 | Ac-HLKLKQEN |
| 1300 fluorescence intensity units | 2.97 | Ac-HYKLKQHE |
| 2200 fluorescence intensity units | 2.91 | Ac-WNSYPRND |
| 1250 fluorescence intensity units | 2.82 | Ac-LILLQQLD |
| 1340 fluorescence intensity units | 2.76 | Ac-PWKLKQDP |
| 1230 fluorescence intensity units | 2.56 | Ac-WGKLKQGE |
| 802 fluorescence intensity units | 2.48 | Ac-HNSYPRNE |
| 3050 fluorescence intensity units | 2.46 | Ac-GKSYPRHR |
| 1310 fluorescence intensity units | 2.45 | Ac-YHNYLLHP |
| 1860 fluorescence intensity units | 2.34 | Ac-LFKLKQND |
| 964 fluorescence intensity units | 2.34 | Ac-HNNYLLNN |
| 2450 fluorescence intensity units | 2.31 | Ac-HRSYPRVY |
| 3110 fluorescence intensity units | 2.28 | Ac-HFKLKQGG |
| 3420 fluorescence intensity units | 2.23 | Ac-NNSYPRHR |
| 6980 fluorescence intensity units | 2.2 | Ac-PFKLKQGN |
